In the supplement of paper PMC9170038:

Tested on: MS2 coat protein
Assay: apparent KD of MS2 coat protein; designed switch direction (-1 OFF switch, 1 ON switch): -1; higher = weaker reporter binding
In short: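 Three titration conditions were used: no input, 200 uM small-molecule ligand, and an oligonucleotide input. In each, SNAP-549-labelled MS2 coat protein was raised from 0.7 or 1.5 nM, doubling, to 3 µM over designed RNA switches transcribed on Illumina chips by stalled E. coli RNA polymerase. Curve fits of normalised cluster fluorescence gave values whose per-design median over clusters is the apparent KD.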

[1] = input ligand: microRNA oligo, concentration not stated
[2] = Eterna round: R95, input ligand: FMN 200 uM
[3] = Eterna round: R95, input ligand: microRNA oligo, concentration not stated
[4] = Eterna round: R95, input ligand: none

Sequence	apparent KD of MS2 coat protein (input ligand: FMN 200 uM) [nM]	apparent KD of MS2 coat protein [1] [nM]	apparent KD of MS2 coat protein (input ligand: none) [nM]	apparent KD of MS2 coat protein [2] [nM]	apparent KD of MS2 coat protein [3] [nM]	apparent KD of MS2 coat protein [4] [nM]
CAUAGUUACACAGGAUAUAGUACAUGAGGAUCACCCAUGUAAUAAAUGAGAAUUUCGAAUGUAUACUAGAAGGGUGAAAUCUAC [Ostracism 54 - Jieux - Exclusion NG 2] (Eterna round: R96, puzzle: Exclusion NG 2)	206	144	171	–	–	–
CAUAUAGUAGUCAGGAUAUGCGAAUAUAUAAUUAAGUAGAAGGGACAUGAGGAUCACCCAUGUAUAUUGUAAAG [EX-4 Malc #2] (puzzle: Brourd's mod of Exclusion 4)	–	–	–	26.9	26.1	28.4
CAUCUGUGAGGAUAUGGUGAGUAGUGCCUGAGCGCUGCUCACCAGAAGGCACAUGAGGAUCACCCAUGUAUGAA [Mat - Exclusion 4 - Mod of JL - D1] (puzzle: Exclusion 4)	–	–	–	–	46.9	–
CAUGAUCUUCGGAUCAUGUACAUGAGGAUCACCCAUGUUACGAGCUGAUUUUCAUACAAGCUUUUUGCUCGUCUUAU [Sensor v3 - Turn-off variant 1 - 30] (puzzle: Sensor v3, turn-off variant 1)	–	–	–	41.5	317	43
CAUGAUUGACGAGGAUAUUGUUCUACAUCACGACGAGAAGGCGUCUGUCACAUGAGGAUCACCCAUGUGAGACUGGUGAAUGAG [Ex NG1 #81] (Eterna round: R96, puzzle: Exclusion NG 1)	36.4	17.1	20.4	–	–	–
CAUGCUUCGGCAUGUACAAGCUUUUUGCUCGUCUUAUUAACAUGAGGAUCACCCAUGUCAAAGAGACCUCAUGUAUU [Sensor v3 - turn-off variant 2 - 3] (puzzle: Sensor v3, turn-off variant 2)	–	–	–	356	16	263
CAUGCUUCGGCAUGUACAAGCUUUUUGCUCGUCUUAUUAACAUGAGGAUCACCCAUGUUAAUGAGACCUCAUGUAUU [Sensor v3 - turn-off variant 2 - 8] (puzzle: Sensor v3, turn-off variant 2)	–	–	–	13.6	16.7	11.4
CAUGGCACGUAGGAUAUCUCGCAGCCCGGCUGCAGAGAAGGACGUACAUGAGGAUCACCCAUGUAUGAUCCAAA [Laquus] (puzzle: Exclusion 6)	–	–	–	–	24.1	–
CAUGGGUGUGAGCCGCAUUACAUGAGGAUCACCCAUGUCAACAAGCUUUUUGCUUGUCUUACGCGGCGGCACCAAAA [Bimaus] (puzzle: Sensor v3, turn-off variant 1)	–	–	–	17.4	9.65	14.9
CAUGUCCAACGAGGAUAUGGGACAGGAAGUGUACCAGAAGGCGUACGGACAUGAGGAUCACCCAUGUCGCGCGGUGCGAUGUGG [MOD Nando EXNG 1.1] (Eterna round: R96, puzzle: Exclusion NG 1)	47	23.8	91.7	–	–	–
CAUGUGUAAGGAUAUGACAAUGGUAUCGAAAGAUACCAUUGUCAGAAGGUACAUGAGGAUCACCCAUGUAGAUC [Ex4-3: 19] (puzzle: Exclusion 4)	–	–	–	342	60.8	86.3
CAUUAAACGGAGGAUAUCCUAUAUAUAAUAAUAGGAGAAGGUCGUACAUGAGGAUCACCCAUGUGUGGACAUGG [something] (puzzle: Exclusion 6)	–	–	–	107	206	249
CAUUAUGUUGAGGAUAUGCGCCGGAAAACUGACGCAGAAGGCGACACAUGAGGAUCACCCAUGUCAGUUUUCGA [salish99_ex6_r004_426] (Eterna round: R97, puzzle: Exclusion 6)	136	–	273	–	–	–
CAUUAUUAUCGAGGAUAUCCUAUUGAAAUUCUGGGAGAAGGCGGACUCAACAUGAGGAUCACCCAUGUGGGACGGAUGCUAGGC [salish99_exng1_r04_601] (Eterna round: R96, puzzle: Exclusion NG 1)	14.2	15.6	19.3	–	–	–
CAUUGUUAUCGAGGAUAUCCUAUUGAGAUUCUAGGAGAAGGCGGACUAAACAUGAGGAUCACCCAUGUGGGACGGAUGCUAGGG [Ex NG1 #30] (Eterna round: R96, puzzle: Exclusion NG 1)	31.4	19.8	25.2	–	–	–
CCAAACAGAGGAUAUGCGAAUAAAUAAAACUUUUUUUUUUAACAUGAGGAUCACCCAUGUAGAAGGCUGCAACC [Ex2 #40] (Eterna round: R97, puzzle: Exclusion 2)	24.4	–	19.5	–	–	–
CCAAAGUCAGGAUAUACAUGAGGAUCACCCAUGUAAAAUUUUAAUUUAAUUUGAAGGUGUAGAAGGGACAAACC [Ex3 #32] (Eterna round: R97, puzzle: Exclusion 3)	30.5	–	30.3	–	–	–
CCAAGAAUAGGAUAUACACCAUGUCAGCUUCUAUACAUCGCACAUGAGGAUCACCCAUGUAGAAGGGUUCUCUC [Exclusion-2-#4] (Eterna round: R97, puzzle: Exclusion 2)	369	–	282	–	–	–
CCAAGCAAAAUCAUUAACAACAUGAGGAUCACCCAUGUGUAAGCAAUUAUGUUUGGGCUCUUUAGAGCUCGUCUUAU [JR_STOV1_Sub044] (Eterna round: R97, puzzle: Sensor, turn-off variant 1)	13.5	–	14.2	–	–	–
CCAAGCUGUGUGAGGAUAUGCUGAACCUUGGUUCAGCAGAAGGCACAUGAGGAUCACCCAUGUGAAGAGCUUGG [Mat - Exclusion 4 - JL Mod - D96] (puzzle: Brourd's mod of Exclusion 4)	–	–	–	–	16.6	–
CCAAGCUUAUUCAUUAACAACAUGAGGAUCACCCAUGUGUAAGCAAUUAUGUUUGGGCUCUUUAGUGCUCGUCUUAU [Sensor-V1 #21] (Eterna round: R97, puzzle: Sensor, turn-off variant 1)	13.7	–	13.9	–	–	–
CCAAGCUUAUUCAUUAACAACAUGAGGAUCACCCAUGUGUAGGCAAUUAUGUUUGGGCUCUUUAGUGCUCGUCUUAU [Sensor-V1 #22] (Eterna round: R97, puzzle: Sensor, turn-off variant 1)	14.7	–	14.7	–	–	–
CCAAGCUUAUUCAUUAACCACAUGAGGAUCACCCAUGUAUAGGCAAUUAUGACUGGGCUCUUUGGUGCUCGUCUUAU [Sensor-V1 #26] (Eterna round: R97, puzzle: Sensor, turn-off variant 1)	11.5	–	11.7	–	–	–
CCAAGCUUAUUCAUUAACCACAUGAGGAUCACCCAUGUCUAGGCAAUUAUGACUGGCCCAUCUGGUGCUCGUCUUAU [Sensor-V1 #31] (Eterna round: R97, puzzle: Sensor, turn-off variant 1)	20.9	–	20.8	–	–	–
CCAAUGUAAGGAUAUGACAAUGGUAUCUUCGGAUACCAUUGUCAGAAGGUACAUGAGGAUCACCCAUGUACAAA [Ex4-3: 9] (puzzle: Exclusion 4)	–	–	–	–	13.4	–
CCACGACAUGAGGAUCACCCAUGUGAGGAUAUGACCUGAAAAGCGUGAGCAGUUUGUAUCAGAAGGCGCGUGGG [salish99_ex1_r4_066] (Eterna round: R97, puzzle: Exclusion 1)	54.4	–	67.4	–	–	–
CCACGACAUGAGGAUCACCCAUGUGAGGAUAUGGCCUGAAAAGCGUGAGCUGAAUCAAUCAGAAGGCGCGUGGG [salish99_ex1_r4_059_4A's] (Eterna round: R97, puzzle: Exclusion 1)	109	–	42	–	–	–
CCACGUCCGUACGUAUACUUGUCUCCUGAAAGAAAGGGCACAUGAGGAUCACCCAUGUUUUUGCUCGUCUUAUGAGC [JR_Sensorv2_tov2_Sub714] (Eterna round: R96, puzzle: Sensor v2, turn-off variant 2)	20.4	40.9	22.8	–	–	–
CCAGAAUGUGUCAGGAUAUCGGGUACCAAUAGCUUCGAGAAGGGACAUGAGGAUCACCCAUGUUCUCGGAGAGA [Eternabot (L2) Solution 76] (Eterna round: R97, puzzle: Brourd's mod of Exclusion 4)	20.5	–	18	–	–	–
CCAGCGGACAAAGGAUAUUGCGGUGGCCGGCUCGGCGUACCGAGCCUACAUGAGGAUCACCCAUGUAAGAAGGUUGUCGUAGGA [Mat - Exclusion NG 2 - Mod of JL - D72] (Eterna round: R96, puzzle: Exclusion NG 2)	72.2	12.2	22.7	–	–	–
